How the values were obtained:
[1] = tested on: MCF-10A cells; experiment: Caveolin and clathrin-dependent compound 901a uptake in MCF-10A cells; format: cell-based, human; details: 30 min pretreatment
Excerpt: Clathrin-mediated endocytosis is mediated by small vesicles that have a morphologically characteristic coat made up of a complex of proteins that are mainly associated with the cytosolic protein clathrin. Caveolae are the most common reported non-clathrin-coated plasma membrane buds, which exist on the surface of many, but not all cell types. They consist of the cholesterol-binding protein caveolin (Vip21) with a bilayer enriched in cholesterol and glycolipids. Both clathrin mediated endocytosis and caveolae transport extracellular molecules into the cell. 5,000 cells were seeded per well in a 96 well plate, overnight. Cells were pretreated with the clathrin inhibitor Pitstop2 (30 uM or 60 uM) or the caveolin inhibitor filipin (0.5 ug/ml or 1.0 ug/ml) for 30 minutes. […] Cells were fixed and imaged with IncuCyte. DMSO and antibody only were used as controls.

[2] = target: T1, STAT3 (Homo sapiens, UniProt P40763); experiment: Cell binding assay of anti-STAT3 antibodies, fixed and permeabilized cells, flow cytometry; parameters: endogenous in cells; details: MDA-MB-468 and U251 cells, serial dilutions, PE anti-human IgG
T1 sequence (P40763 whole entry): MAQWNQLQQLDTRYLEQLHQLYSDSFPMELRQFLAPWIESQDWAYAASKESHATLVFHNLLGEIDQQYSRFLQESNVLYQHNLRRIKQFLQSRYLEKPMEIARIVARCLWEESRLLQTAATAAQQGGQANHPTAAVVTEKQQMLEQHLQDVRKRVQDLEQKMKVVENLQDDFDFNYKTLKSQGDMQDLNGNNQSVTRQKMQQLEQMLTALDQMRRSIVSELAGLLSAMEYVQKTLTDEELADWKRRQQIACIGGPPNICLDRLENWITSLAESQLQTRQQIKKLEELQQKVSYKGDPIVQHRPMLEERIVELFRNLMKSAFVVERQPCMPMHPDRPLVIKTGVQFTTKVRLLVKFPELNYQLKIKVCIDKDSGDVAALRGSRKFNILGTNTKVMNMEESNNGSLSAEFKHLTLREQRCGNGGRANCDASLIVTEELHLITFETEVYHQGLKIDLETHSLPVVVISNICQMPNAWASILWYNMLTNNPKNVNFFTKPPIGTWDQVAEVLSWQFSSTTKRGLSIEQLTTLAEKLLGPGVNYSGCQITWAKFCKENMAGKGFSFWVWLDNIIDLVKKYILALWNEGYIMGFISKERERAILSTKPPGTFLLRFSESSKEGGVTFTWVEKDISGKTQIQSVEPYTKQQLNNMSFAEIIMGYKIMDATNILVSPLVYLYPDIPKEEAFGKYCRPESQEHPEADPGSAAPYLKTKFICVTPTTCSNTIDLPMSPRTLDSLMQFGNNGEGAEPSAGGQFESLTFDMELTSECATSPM
Procedure: Next, the binding of the candidate anti-STAT3 antibodies to cellular targets was tested in cell binding assays using MDA-MB-435 breast cancer cells and U251 cells. The cells were seeded overnight in a 96 well plate, then fixed with PFA and permeabilized with methanol. Cells were incubated with serial dilutions of the anti-STAT3 antibody candidates ST1A5, ST3G12 and ST5G12 for one hour and 30 minutes. Following incubation, the cells were washed and incubated for 30 minutes with phycoerythrin (PE) conjugated anti-human IgG. Fluorescence was measured on an Intellicyte high-throughput flow cytometry analyzer. […] Bevacizumab (Avastin), a monoclonal antibody that inhibits vascular endothelial growth factor A (VEGF-A) was used as a negative control.

[3] = tested on: cellular antigens in U251 cells; experiment: Cell binding of naked ST3G12 versus compound 901a in permeabilized U251 cells (HTFC); details: 45 min room temperature, PE anti-human IgG
Procedure: After 45 minutes at room temperature, cells were washed twice and incubated with phycoerythrin (PE) conjugated-anti-human IgG for 20 minutes at room temperature in the dark. Cells were then washed and analyzed by high throughput flow cytometry (HTFC). The results are shown in FIG. 9 for assessment of antibody binding to cellular antigens in U251 cells.

[4] = target: T1, STAT3; experiment: IL-6-stimulated STAT3 phosphorylation ELISA in MCF-10A and MCF-7 cells; format: cell-based; parameters: endogenous in cells; details: overnight pre-treatment, IL-6 10 or 40 ng/ml 20 min
Procedure: Cells were pre-treated overnight with antibody, and then stimulated with various concentrations of IL-6 for 20 minutes (10 ng/ml or 40 ng/ml). IL-6 is a STAT3 activator. Cells were then lysed and the protein lysates were subjected to ELISA to determine the phosphorylation status. […] “OS-AIP” refers to an oligosaccharide conjugated bacterial AIP protein, used as a control.

[5] = target: T1, STAT3; experiment: Biacore T200 affinity to recombinant human STAT3-GST; details: Biacore T200, 1:1 (Langmuir) binding model
Procedure: (§1) Anti-human Fc antibody (GE, BR-1008-39) was immobilized on a CMS sensor chip to approximately 1000 RU using standard NHS/EDC coupling methodology. Antibodies (approximately 10 ug/ml) were captured for 60 seconds at a flow rate of 10 ul/min Recombinant human STAT3-GST was serially diluted 2-fold into running buffer (HBS-EP+, starting from […]). All measurements were conducted at a flow rate of 30 ul/min Surfaces were regenerated with 3M MgCl2 (from human antibody kit) for 60 seconds. A 1:1 (Langmuir) binding model was used to fit the data.

[6] = tested on: U251 cells; experiment: Cell penetration in U251 cells by microscopy; format: cell-based; details: 20 ug/mL, 2 hours at 37° C.
Procedure: Briefly, previously cleaned glass coverslips were coated with collagen for 2 hours at 37° C. 100,000 U251 cells were seeded on the coverslips. Media was removed, and cells were rinsed once with fluorobrite. Next, 20 ug/mL of the specified antibody was added for 2 hours at 37° C. Cells were fixed in 4% PFA for 15 minutes and then permeabilized with 0.1% TritonX for 15 minutes. Cells were blocked with 3% BSA for 30 minutes and 1:250 GAH-Alexa fluor 488 was added for 1 hour. Next, 200× wheat germ agglutinin Alexa fluor 555 (WGA 555) and 1:1000 DAPI was added for 30 minutes. Cells were washed 3× with PBS and mounted with prolong gold anti-fade.

[7] = tested on: GST protein; experiment: Biacore binding to GST protein; details: Biacore assay
Procedure: as §1

O=C1NC(=NS(=O)(=O)c2cccc3ccccc23)S/C1=C\c1ccc(Br)cc1 [PS2, Pitstop2]
effect of inhibitor on compound 901a uptake ([1]; inhibitor 30 uM and 60 uM): inhibited compound 901a uptake

CCCCC[C@@H](O)[C@H]1C(=O)O[C@H](C)[C@@H](O)/C=C/C=C/C=C/C=C/C=C(\C)[C@@H](O)C[C@H](O)C[C@H](O)C[C@H](O)C[C@H](O)C[C@H](O)C[C@@H]1O [filipin]
effect of inhibitor on compound 901a uptake ([1]; inhibitor 0.5 ug/ml): little effect | effect of inhibitor on compound 901a uptake ([1]; inhibitor 1.0 ug/ml): greater effect

B1: ST3G12: Human anti-human STAT3 antibody; heavy chain variable SEQ ID NO: 3, light chain variable SEQ ID NO: 4 (antibody, V domains shown)
VH: QVQLVQSGAEVKKPGASVKVSCKASGYTFTSYYMHWVRQAPGQGLEWMGIINPSGGSTSYAQKFQGRVTMTRDTSTSTVYMELSSLRSEDTAVYYCARSDYVHSFDIWGQGTMVTVSS
VL: QPVLTQPPSASALLGASIKLTCTLSSEHSTYTVEWYQQRPGRSPQYIMNVKSDGSYNKGDGIPDRFMGSSSGADRYLTFSNLQSDDEAEYHCGESHRIDGQVGVVFGGGTKLTVL
binding to STAT3 / cellular antigens (MFI) [2]: bound STAT3 | binding to cellular antigens in U251 cells [3]: considerably lower | effect on STAT3 phosphorylation [4]: little to no effect | Rmax [5]: 174 RU | kd [5]: 0.000322 s⁻¹ | ka ([5]; STAT3-GST from 100 nm): 59700 M⁻¹ s⁻¹ | cell penetration / internalization [6]: no internalization | binding to GST protein [7]: No binding

— patent publication US10336829B2, “Intracellular delivery compounds” (Sorrento Therapeutics, Inc., priority 2015, dated 2019)
